T1: HLA class I-A2 molecule (human), P04439
T1 chain: not shown


Assays:
[1] = molecular target: T1, HLA class I-A2 molecule (human), P04439; assay: T2 cell binding assay, peptide 50 µg/ml, HLA-A2 upregulation read with MAb A2,69 by flow cytometry
[2] = molecular target: T1, HLA class I-A2 molecule (human), P04439; assay: T2 binding assay, peptide 50 µg/ml for 24 h, anti-HLA-A2 mAb, flow cytometry; cut off for positivity 100

Row | Binder | mean channel fluorescent intensity [1] | T2 binding, relative fluorescence (mean intensity) [2]
1 | FLTPKKLQCV (modifications not checked) [PSA peptide 141-150] | 230 | 128
2 | KLQCVDLHV (modifications not checked) [PSA peptide 146-154] | 224 | –
3 | FLTPKKLQCVDLHVISNDVCAQVHPQKVTK (modifications not checked) [prostate specific antigen oligo-epitope peptide (PSA-OP)] | – | 63.3
